The results in this text go back to US10961303 (UNIVERSITEIT TWENTE, dated 2021).

Assay [1] has as its target T1, BMP-7 (R&D system cat. #354-BP/CF) (UniProt P18075 293-431).
T1 construct: Bought protein
T1 sequence (looked up): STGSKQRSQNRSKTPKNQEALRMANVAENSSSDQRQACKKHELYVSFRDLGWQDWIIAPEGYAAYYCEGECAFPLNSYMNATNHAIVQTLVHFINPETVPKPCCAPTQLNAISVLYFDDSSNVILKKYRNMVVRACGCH
The experiment in a line: binding test to cognate antigen, method not described.

Assay [2] has as its target T1, BMP-7 (R&D system cat. #354-BP/CF). The experiment in a line: solid phase ELISA, wells coated with 200 ng BMP7. The procedure:
(§1) The indicated amounts of VHHs were incubated with wells coated with ~200 ng BMP6, 200 ng BMP7 or no BMPs (PBS). After several washes, bound VHHs were detected with a rabbit anti-VHH serum and a Donkey anti-rabbit antibody coupled to a peroxidase. The amount of converted OPD (Absorbance at 490 nm; A 490 nm) is proportional to the amount of bound VHHs.
(§2) MaxiSorb plate wells were coated overnight at 4° C., with the antigens in PBS. After blocking of the wells with 4% marvel in PBS, they were incubated with VHH or VHH-fused to M13 phages in the presence of 2% Marvel. The wells were washed with PBS-tween, and bound phages were detected by incubation with a mouse Monoclonal antibody against M13 phage coupled to HRP. Bound VHH were detected by incubation with a rabbit anti-VHH polyclonal serum and a goat anti-rabbit coupled to HRP. The amount of HRP was developed by the addition of OPD. The reactions were stopped by the addition of H_2SO_4 and measured at 490 nm.
In general terms: In an ELISA, binding on a coated surface is turned into a signal by an enzyme label.

In assay [3] the target is T2, BMP-6 (R&D systems cat. #507-BP/CF) (human, UniProt P22004 382-513, limits assumed).
T2 construct: Bought protein; also called recombinant human BMP-6
T2 sequence (looked up): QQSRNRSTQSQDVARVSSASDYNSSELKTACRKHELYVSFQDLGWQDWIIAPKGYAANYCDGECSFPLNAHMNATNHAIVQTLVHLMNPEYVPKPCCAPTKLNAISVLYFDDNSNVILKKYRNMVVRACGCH
The experiment in a line: solid phase ELISA, wells coated with 200 ng BMP. The method, then: as §1, §2

Assay [4] deals with T2, BMP-6 (R&D systems cat. #507-BP/CF). The experiment in a line: solid phase ELISA, wells coated with ~200 ng BMP6. The method, then: as §1, §2
Assay [5] has the same target. The experiment in a line: ELISA, 100 ng BMP6 coated, serial dilutions, read at 490 nm. From the text:
FIG. 7A-7B show the binding properties of the fusion proteins according to the invention which bind to a growth factor or growth factor inhibitor and to a biomaterial. Fusion proteins according to the invention are composed of the VHH according to the invention binding to a growth factor (indicated in the figure as "VHH-6-F2") and a VHH binding to a biomaterial (indicated in the figure as "MA"). […] The fusion proteins (indicated in the figure as "F") were constructed by genetic fusion of a VHH binding to BMP6 and a VHH binding to hydroxyapatite. To achieve binding to the growth factor BMP6 (FIG. 7A), 100 ng of BMP6 was coated into wells of a maxisorb plate. Serial dilutions of the VHH which binds to BMP6 (VHH-6-F2) and fusion proteins according to the invention (F) were added to the wells. Bound VHHs (VHH-6-F2) and fusion proteins (F) were detected with labelled polyclonal antibodies.

Assay [6] has the same target. The experiment in a line: SPR, VHH coupled to CM5 chip, BMP injected. A general note: SPR reads the build-up and loss of mass on a sensor chip optically.
The target in assay [7] is T1, BMP-7 (R&D system cat. #354-BP/CF). The experiment in a line: SPR, VHH coupled to CM5 chip, BMP injected.

Residue numbers refer to the chain shown, from its start.

B1: Glyco-VHH (glycosylated VHH-7-G7 with an N-glycosylation site introduced in loop5, made in yeast) (VHH)
VHH: EVQLVESGGGLVQAGGSLRLSCAASGFTFDDYIIGWFRQAPGKEREGISCISSSDGSTYYADSVTGRFTISSDNANNTVYLQMNSLKPEDTAVYYCAAHAKWPYGTYSFRRCRRASFDSWGQGTQVTVSS
modifications: N-linked glycosyl group at the glycosylation site introduced in loop5 (position not given)
notes: Expressed in S. cerevisiae; also called mutated VHH
Consider B1, for which the binding result in assay [1] was “binds”.

B2: VHH-7-B8 (VHH)
VHH: EVQLVESGGGLVRAGGSLRLSCAASGRTFSGYVAGWFRQAPGKEREFVAAISWSGITYYGDSVKGRFTIARDNSKNGVYLQMNSLKPEDTAVYYCGAGKGYYKDYRGYDYWGQGTQVTVSS
notes: Llama VHH selected against BMP7; not shown: C-terminal Myc and His tags
As to B2, in assay [2], the binding result is on record as “binds”.

B3: VHH-7-F11 (VHH)
VHH: B2 VHH with R13Q, I51S, A70S, S74A, G77T
notes: Llama VHH selected against BMP7; In SPR coupled to a CM5 chip by NHS chemistry; not shown: C-terminal Myc and His tags
Take B3: the binding result in assay [2] is “binds”; in assay [3], “no binding”.

B4: VHH-6-C2 (VHH)
VHH: EVQLVESGGGLVQVGGSLRLSCAASGRTSSMYSMGWFRQAPGKEREFVAAIGWRFGEKYYTNSVKGRFTISRDGAENTNTVYLQMNSLKPDDTAVYYCAADPDDASQYYSDWMKGYGMDYWGKGTLVTVSS
notes: Llama VHH selected against BMP6, cross-reactive with BMP7; not shown: C-terminal Myc and His tags
Take B4: the binding result in assay [2] and in assay [4] was “binds” throughout.

B5: VHH-6-F2 (VHH)
VHH: EVQLVESGGGFVQAGGSLRLSCAASGSIFSINAMGWYRQAPGKQRELVAAITSGGSTNYADSVKGRFTISRDNAKNTLYLQMNSLKPEDTAVYYCSAVTILLTSGGWGSGNDYWGQGTQVTVSS
notes: Llama VHH selected against BMP6; not shown: C-terminal Myc and His tags
Take B5: the binding result in assay [5] was “binds”.

B6: VHH-6-H1 (VHH)
VHH: EVQLVESGGGLVQAGGSLRLSCAASGSIFSIVSMGWYRQVPGKQRELVAAITSAGSTNYGDSAKGRFTISRDNAKNTVYLQMNSLKPEDTAVYYCNSYGLGYPGDYGIDYWGKGTLVTVSS
notes: Llama VHH selected against BMP6; In SPR coupled to a CM5 chip by NHS chemistry; also called monohead VHH-6-H1; not shown: C-terminal Myc and His tags
Take B6: the binding result in assay [6] and in assay [7] was “binds” each time.

B7: VHH-6-D6 (VHH)
VHH: EVQLVESGGGLVQAGGSLRLSCAASGRTFSSYGMGWFRQAPGKERDFVAAVSKSGGSTYYTASVKGRFTVSRDNAKNTVYLQMNSLKPEDTAVYYCAAGRWESGSRPGSTWYGERTYDYWGQGTQVTVSS
notes: Llama VHH selected against BMP6, made in E. coli periplasm; not shown: C-terminal Myc and His tags
For B7, in assay [4], the binding result is “binds”.

B8: VHH-6-C1 (VHH)
VHH: B7 VHH with K53R, S57N, V70I, V79M, P107L
notes: as for B5
As for B8, in assay [4], the binding result is “binds”.
